Measurements taken from the supplement of paper PMC10567573.
± gives the standard deviation.

Assay: protein stability index of a GFP-peptide fusion (GPS, HEK-293T) (PSI 1-6); higher = more stable
[1] = treatment: DMSO, c terminus: native
[2] = treatment: MLN4924 1 uM, 8 h, c terminus: native
[3] = treatment: DMSO, c terminus: a fixed tail appended
[4] = treatment: MLN4924 1 uM, 8 h, c terminus: a fixed tail appended
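Note: 24-mer peptide tiles fused after GFP, lentivirally expressed, FACS-sorted into six equal bins by GFP/DsRed ratio, decoded by Illumina sequencing, PSI is the read-weighted mean bin number.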

| Sequence | protein stability index [1] | protein stability index [2] | protein stability index [3] | protein stability index [4] |
| --- | --- | --- | --- | --- |
| PMMKLKRHFVAQKYKKQIDHMYH [ACSBG2] | 2.7 ± 0.32 | 2.75 ± 0.32 | – | – |
| GYQLSDHTVGVLFNNGAHMSLLPD [PLK2] | – | – | 3.08 ± 0.2 | 3.14 ± 0.081 |
| LRKGYLFMYNLVQFLGFSWIFVNL [HACD3] | – | – | 3.5 ± 0.29 | 3.22 ± 0.31 |
| LFEEPAPQALATRALPCPAHVVFR [FCHSD1] | – | – | 3.13 ± 0.16 | 3.21 ± 0.19 |
| YSKTFQRSNVDFLETPELTSTMLV [NECAB1] | – | – | 2.18 ± 0.37 | 2.39 ± 0.35 |
| QVLEMKNQQIHEQEKKILELEKLA [MTUS2] | – | – | 4.68 ± 0.31 | 4.62 ± 0.45 |
| PGNPSLHSRFVELSEAYRVLSREQ [DNAJC4] | – | – | 3.68 ± 0.44 | 3.81 ± 0.21 |
| MLGFRPYRFYFYMWKFVSPLCMAV [SLC6A17] | – | – | 2.27 ± 0.25 | 2.29 ± 0.68 |
| QPLNFVRFYLPLLIHQHEKVIYLD [GLT8D2] | – | – | 3.02 ± 0.59 | 3.03 ± 0.69 |
| FKSLFGSIGDIESCKLVRDKITGQ [ELAVL3] | – | – | 2.87 ± 0.38 | 2.56 ± 0.15 |
| PVENFFVKCNGALINTSDTVQHGA [SDE2] | – | – | 3.07 ± 0.12 | 3.08 ± 0.26 |
| RAVIAWMEKIPFVLGGNLQGGELV [CPXM2] | – | – | – | 2.36 ± 0.63 |
| SWRTLAILVNLQGTVVFLLSLFIP [SLC22A15] | – | – | 3.4 ± 0.53 | 2.89 ± 0.11 |
| LHDNHEQMPTEIEFPESRKPISTK [ZNF649] | – | – | 5.1 ± 0.22 | 5.25 ± 0.31 |
| PPETSLPYKWVVEAANLLIPAVGS [MYBL2] | – | – | 2.41 ± 0.42 | 2.27 ± 0.29 |
| TGYLSSMVGLILGPFGVNHGVELH [PCMTD2] | – | – | 3.17 ± 0.31 | 2.78 ± 0.4 |
| AEDWFFSKTEELNREVATNSELVQ [KRT17] | – | – | 4.87 ± 0.2 | 4.84 ± 0.07 |
| LENVFSSLTDDKYDVAMNRAKDLV [GOLPH3L] | – | – | 3.89 ± 0.32 | 3.92 ± 0.19 |
| IFTTPNFDETSSATTISTSEDGSY [KMT2E] | – | – | 4.75 ± 0.13 | 4.67 ± 0.26 |
| SFGQVVKAYDHQTQELVAIKIIKN [DYRK1B] | – | – | 2.76 ± 0.31 | 2.97 ± 0.2 |
| AEQEALTGECKELEKKNEALKERA [ATF4] | – | – | 5.3 ± 0.28 | 5.28 ± 0.27 |
| KPDDEVKETAHDLDVKSPPEPRSE [RIPK4] | – | – | 5.63 ± 0.34 | 5.61 ± 0.37 |
| GPESPPPPYSRLSPRDEYKPLDLS [SMAD6] | – | – | 4.67 ± 0.15 | 4.78 ± 0.2 |

| Sequence | protein stability index [1] | protein stability index [2] | protein stability index [3] | protein stability index [4] |
| --- | --- | --- | --- | --- |
| LGETKAYVFFEKDFGDMHSYVRSR [TRIB1] | – | – | 2.62 ± 0.42 | 2.37 ± 0.11 |
| GRRCKKCTEGPIDLVFVIDGSKSL [MATN2] | – | – | 2.06 ± 0.35 | 2.41 ± 0.44 |
| SDSESKPDQEAEPQEAAGAQGRAG [EPB41L3] | – | – | 5.54 ± 0.37 | 5.63 ± 0.22 |
| LPESLARSLLPSTEYQKQLLAAQV [FBF1] | – | – | 2.75 ± 0.46 | 2.56 ± 0.26 |
| ALIICYNWLHRRLAGQFLEELRKF [MOG] | – | – | 2.64 ± 0.65 | 2.47 ± 0.57 |
| WIFVNLTVRFCILGKESFYDTFHT [HACD3] | – | – | 3.29 ± 0.26 | 3.05 ± 0.12 |
| APRTSSCAERLQSEEQVSKNLFGP [FCHO1] | – | – | 4.21 ± 0.17 | 4.17 ± 0.31 |
| HDIIKHPMDLSTVKRKMDGREYPD [BRD3] | – | – | 5.02 ± 0.19 | 5.1 ± 0.11 |
| EFDYLKSLEIEEKINKIRWLPQQN [PPP2R2B] | – | – | 2.62 ± 0.21 | 2.9 ± 0.42 |
| RSNTLRERSQVRGSAPPRATPGGG [PCDHGC5] | – | – | 4.68 ± 0.17 | 4.47 ± 0.28 |
| IREDEVHRLGSPYGHCTAGGEGVE [SCNN1D] | – | – | 4.8 ± 0.26 | 4.85 ± 0.11 |
| RKTHVLLGRSHDTVQEAATSRRAR [MFSD9] | – | – | 4.64 ± 0.41 | 4.73 ± 0.27 |
| KDMATGKSKGYGFVSFFNKWDAEN [TIA1] | – | – | 2.44 ± 0.3 | 2.94 ± 0.28 |
| DKENGENVGLESKYLKKREDSIPL [SASS6] | – | – | 5.03 ± 0.18 | 4.76 ± 0.24 |
| LIQDGNPMENLEKQLICPICLEMF [TRIM63] | – | – | 2.87 ± 0.58 | 2.97 ± 0.54 |
| VVQTLYPFSSVTEEELNFEKGETM [NCK2] | – | – | 3.66 ± 0.17 | 3.77 ± 0.29 |
| VPQDPDLEEEEEEEDLVLTCEDDE [ZBTB22] | – | – | 5.59 ± 0.22 | 5.64 ± 0.25 |
| MRDRHVNMHLNLRPFDCPVCNKKF [ZBTB22] | – | – | 2.99 ± 0.32 | 3.44 ± 0.55 |
| KAVQYEEKNPCRTLCCFCCPCLK [STX11] | 3.59 ± 0.36 | 3.7 ± 0.084 | – | – |
| GLVDFRDVALALAALDGGRSLEEL [LPCAT4] | – | – | 2.51 ± 0.34 | 3.17 ± 0.33 |
| YSLAEDTIQGVPLSSYISINSDTG [PCDHGA10] | – | – | 3.53 ± 0.2 | 3.47 ± 0.28 |
| KASNPDLKLWEIGKIIGGMWRDLT [SMARCE1] | – | – | 3.42 ± 1.9 | 2.55 ± 0.64 |
